Measurements: publication PMC4939597, “Mechanism for insulin-like peptide 5 distinguishing the homologous relaxin family peptide receptor 3 and 4” (Scientific Reports, 2016)
No end group written: not given here.

Tests used:
human RXFP4 [1] = molecular target: T1, human RXFP4 (Homo sapiens, UniProt Q8TDU9); experiment: Receptor binding assay, competition with NanoLuc-conjugated R3/I5 tracer
T1 construct: expressed in transfected cells; host or cells: HEK293T
Protocol: (§1) Figure 3 Receptor binding activities of the mature INSL5 and R3/I5 mutants towards RXFP3 and RXFP4. A NanoLuc-conjugated R3/I5 peptide was used as tracer and HEK293T cells transiently overexpressing human RXFP3 or human RXFP4 were used as receptor source. The tracer concentration used in these assays was 0.5 nM. The nonspecific binding was obtained by competition with 1.0 μM of relaxin-3. The measured data were expressed as mean ± SE (n = 3) and fitted to sigmoidal curves using the software SigmaPlot 10.0.
(§2) The receptor binding assays of the mature INSL5 and R3/I5 mutants were carried out using a NanoLuc-conjugated R3/I5 peptide as tracer and the human embryonic kidney (HEK) 293T cells transiently overexpressing human RXFP3 or human RXFP4 as receptor source. Nonspecific binding was obtained by competition with 1.0 μM of human relaxin-3. Briefly, HEK293T cells were transiently transfected with the expression construct of human RXFP3 or human RXFP4. Next day, the transfected cells were trypsinised, seeded into a 96-well plate, and continuously cultured for 24–36 h to confluence. To start binding assay, the medium was removed and the binding solution (serum-free DMEM medium plus 1% bovine serum albumin) containing 0.5 nM of the NanoLuc-conjugated R3/I5 tracer and varied concentrations of competitor was added (100 μl/well). After incubation at 21 °C for 2 h, the binding solution was removed and the cells were washed twice by ice-cold phosphate-buffered saline (200 μl/well for each wash). Thereafter, the cells were lysed by lysis solution (100 μl/well, from Promega, Madison, WI, USA) and the cell lysate was transferred to a white opaque 96-well plate (50 μl/well). After mixing with the freshly diluted substrate (50 μl/well), bioluminescence was immediately measured on a SpectraMax M5 plate reader (Molecular Devices, Sunnyvale, CA, USA) using the luminescence mode. The measured bioluminescence data were expressed as mean ± SE (n = 3) and fitted to sigmoidal curves using the SigmaPlot10.0 software.

human RXFP4 [2] = molecular target: T1, human RXFP4; experiment: Receptor activation assay, CRE-controlled NanoLuc reporter; type: cell-based
Protocol: (§3) Figure 4 Receptor activation activities of the mature INSL5 and R3/I5 mutants towards RXFP3 and RXFP4. HEK293T cells transiently cotransfected by human RXFP3 or human RXFP4 and a CRE-controlled NanoLuc reporter were used for the activation assays. The measured data were expressed as mean ± SE (n = 3) and fitted to sigmoidal or linear curves using the software SigmaPlot 10.0.
(§4) The receptor activation assays of the mature INSL5 and R3/I5 mutants were carried out using a cAMP-response element (CRE)-controlled NanoLuc reporter according to our previous procedure. Briefly, HEK293T cells were transiently cotransfected with the expression construct of human RXFP3 or human RXFP4 and the CRE-controlled NanoLuc reporter vector pNL1.2/CRE. Next day, the transfected cells were trypsinised, seeded into a 96-well plate, and continuously cultured for 24–36 h to ~90% confluence. To start activation assay, the medium was removed and the activation solution (serum-free DMEM medium plus 1% bovine serum albumin) containing 1.0 μM of forskolin and varied concentrations of peptide was added (100 μl/well). After being continuously cultured at 37 °C for 4 h, the activation solution was removed and the cells were lysed by lysis solution (100 μl/well, from Promega). The cell lysate was then transferred to a white opaque 96-well plate (50 μl/well), mixed with the freshly diluted substrate (50 μl/well), and bioluminescence was immediately measured on a SpectraMax M5 plate reader (Molecular Devices) using the luminescence mode. The measured bioluminescence data were expressed as mean ± SE (n = 3) and fitted to sigmoidal or linear curves using the SigmaPlot10.0 software.

human RXFP3 [3] = molecular target: T2, human RXFP3 (Homo sapiens, UniProt Q9NSD7); experiment: as above; type: cell-based; details: for fold lower activation potency towards RXFP3 compared with wild-type R3/I5: lower than wild-type R3/I5
T2 construct: expressed in transfected cells; host or cells: HEK293T
T2 sequence (Q9NSD7 1-469): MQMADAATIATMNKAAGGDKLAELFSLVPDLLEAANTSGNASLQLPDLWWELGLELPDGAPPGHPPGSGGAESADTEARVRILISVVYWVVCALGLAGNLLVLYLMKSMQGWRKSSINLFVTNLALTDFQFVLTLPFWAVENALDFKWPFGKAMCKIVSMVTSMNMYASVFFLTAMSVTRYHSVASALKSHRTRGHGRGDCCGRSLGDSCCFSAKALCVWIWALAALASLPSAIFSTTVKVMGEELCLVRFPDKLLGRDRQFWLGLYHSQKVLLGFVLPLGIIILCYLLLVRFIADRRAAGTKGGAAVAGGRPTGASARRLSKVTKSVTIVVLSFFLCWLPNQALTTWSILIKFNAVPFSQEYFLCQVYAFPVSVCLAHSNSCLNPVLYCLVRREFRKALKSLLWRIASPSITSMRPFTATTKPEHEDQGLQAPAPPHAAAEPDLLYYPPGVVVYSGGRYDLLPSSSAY
Protocol: as §3, §4

human RXFP3 [4] = molecular target: T2, human RXFP3; experiment: Receptor binding assay, competition with NanoLuc-conjugated R3/I5 tracer
Protocol: as §1, §2

[5] = HEK293T cells transiently overexpressing human RXFP4, 0.5 nM NanoLuc-conjugated R3/I5 tracer, 21 °C, 2 h, mean ± SE, n = 3, SEM
[6] = HEK293T cells transiently overexpressing human RXFP3, 0.5 nM NanoLuc-conjugated R3/I5 tracer, 21 °C, 2 h, mean ± SE, n = 3, SEM
[7] = HEK293T cells cotransfected with human RXFP4 and CRE-controlled NanoLuc reporter, 1.0 μM forskolin, 37 °C, 4 h, mean ± SE, n = 3, SEM
[8] = HEK293T cells cotransfected with human RXFP3 and CRE-controlled NanoLuc reporter, 1.0 μM forskolin, 37 °C, 4 h, mean ± SE, n = 3, N.D., not detectable, SEM

T1 sequence (Q8TDU9 whole entry): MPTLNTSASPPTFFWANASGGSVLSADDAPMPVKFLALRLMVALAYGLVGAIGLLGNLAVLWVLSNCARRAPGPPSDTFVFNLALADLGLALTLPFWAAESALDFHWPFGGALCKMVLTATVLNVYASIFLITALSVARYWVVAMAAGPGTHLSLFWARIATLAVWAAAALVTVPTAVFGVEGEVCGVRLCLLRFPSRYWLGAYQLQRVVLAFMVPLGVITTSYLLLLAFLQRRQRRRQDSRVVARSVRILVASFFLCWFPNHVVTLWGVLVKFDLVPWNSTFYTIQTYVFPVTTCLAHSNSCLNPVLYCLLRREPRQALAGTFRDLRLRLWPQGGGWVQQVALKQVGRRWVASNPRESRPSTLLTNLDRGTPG

Compound: CC[C@H](C)[C@@H]1NC(=O)[C@H](Cc2ccccc2)NC(=O)[C@H](CCC(=O)O)NC(=O)[C@H](CCCNC(=N)N)NC(=O)CNC(=O)[C@@H](NC(=O)[C@H](CC(C)C)NC(=O)[C@H](CCCCN)NC(=O)[C@@H](NC(=O)CNC(=O)[C@H](Cc2ccc(O)cc2)NC(=O)[C@@H]2CCCN2C(=O)[C@H](C)NC(=O)[C@H](C)NC(=O)[C@@H](N)CCCNC(=N)N)C(C)C)CSSC[C@@H]2NC(=O)[C@@H](NC(=O)[C@H](CC(C)C)NC(=O)[C@@H](NC(=O)[C@H](CCC(N)=O)NC(=O)[C@H](CC(C)C)NC(=O)[C@H](CC(=O)O)NC(=O)[C@@H](N)CCC(N)=O)[C@@H](C)O)CSSC[C@H](NC(=O)CNC(=O)[C@H](CC(=O)O)NC(=O)[C@H]([C@@H](C)O)NC2=O)C(=O)N[C@@H](CO)C(=O)N[C@@H](CCSC)C(=O)N[C@@H]([C@@H](C)O)C(=O)N[C@@H](CC(=O)O)C(=O)N[C@@H](CC(C)C)C(=O)N[C@@H](CO)C(=O)N[C@@H](C)C(=O)N[C@@H](CC(C)C)C(=O)N[C@H](C(=O)O)CSSC[C@@H](C(=O)NCC(=O)NCC(=O)N[C@@H](CO)C(=O)N[C@@H](CCCNC(=N)N)C(=O)N[C@@H](Cc2c[nH]c3ccccc23)C(=O)O)NC(=O)[C@H]([C@@H](C)O)NC(=O)[C@H](Cc2ccc(O)cc2)NC(=O)[C@H]([C@@H](C)CC)NC(=O)[C@H](C(C)C)NC(=O)[C@H](C)NC(=O)[C@H](CCCNC(=N)N)NC1=O [[F(B20)Y]R3/I5]
- fold lower binding potency towards RXFP4 compared with wild-type R3/I5 (human RXFP4 [1]; lower than wild-type R3/I5): ~ 3 fold
- fold lower activation potency towards RXFP4 than wild-type R3/I5 (human RXFP4 [2]; lower than wild-type R3/I5): ~ 15 fold
- fold lower activation potency towards RXFP3 compared with wild-type R3/I5 (human RXFP3 [3]): ~ 3 fold

Compound: CC[C@H](C)[C@@H]1NC(=O)[C@H](Cc2ccccc2)NC(=O)[C@H](CCC(=O)O)NC(=O)[C@H](CC(C)C)NC(=O)CNC(=O)[C@@H](NC(=O)[C@H](CC(C)C)NC(=O)[C@H](CCCCN)NC(=O)[C@@H](NC(=O)CNC(=O)[C@H](Cc2ccc(O)cc2)NC(=O)[C@@H]2CCCN2C(=O)[C@H](C)NC(=O)[C@H](C)NC(=O)[C@@H](N)CCCNC(=N)N)C(C)C)CSSC[C@@H]2NC(=O)[C@@H](NC(=O)[C@H](CC(C)C)NC(=O)[C@@H](NC(=O)[C@H](CCC(N)=O)NC(=O)[C@H](CC(C)C)NC(=O)[C@H](CC(=O)O)NC(=O)[C@@H](N)CCC(N)=O)[C@@H](C)O)CSSC[C@H](NC(=O)CNC(=O)[C@H](CC(=O)O)NC(=O)[C@H]([C@@H](C)O)NC2=O)C(=O)N[C@@H](CO)C(=O)N[C@@H](CCSC)C(=O)N[C@@H]([C@@H](C)O)C(=O)N[C@@H](CC(=O)O)C(=O)N[C@@H](CC(C)C)C(=O)N[C@@H](CO)C(=O)N[C@@H](C)C(=O)N[C@@H](CC(C)C)C(=O)N[C@H](C(=O)O)CSSC[C@@H](C(=O)NCC(=O)NCC(=O)N[C@@H](CO)C(=O)N[C@@H](CCCNC(=N)N)C(=O)N[C@@H](Cc2c[nH]c3ccccc23)C(=O)O)NC(=O)[C@H]([C@@H](C)O)NC(=O)[C@H](Cc2ccccc2)NC(=O)[C@H]([C@@H](C)CC)NC(=O)[C@H](C(C)C)NC(=O)[C@H](C)NC(=O)[C@H](CCCNC(=N)N)NC1=O [[R(B12)L]R3/I5]
- fold lower binding potency towards RXFP3 compared with wild-type R3/I5 (human RXFP3 [4]; lower than wild-type R3/I5): ~ 110 fold
- fold lower activation potency towards RXFP3 compared with wild-type R3/I5 (human RXFP3 [3]): ~ 1600 fold

Compound: CC[C@H](C)[C@@H]1NC(=O)[C@H](Cc2ccccc2)NC(=O)[C@H](CCC(=O)O)NC(=O)[C@H](CCCNC(=N)N)NC(=O)CNC(=O)[C@@H](NC(=O)[C@H](CC(C)C)NC(=O)[C@H](CCCNC(=N)N)NC(=O)[C@@H](NC(=O)CNC(=O)[C@H](Cc2ccc(O)cc2)NC(=O)[C@@H]2CCCN2C(=O)[C@H](C)NC(=O)[C@H](C)NC(=O)[C@@H](N)CCCNC(=N)N)C(C)C)CSSC[C@@H]2NC(=O)[C@@H](NC(=O)[C@H](CO)NC(=O)[C@H](CO)NC(=O)[C@H](CO)NC(=O)[C@H](CC(C)C)NC(=O)CNC(=O)[C@H](C)NC(=O)[C@H](CC(C)C)NC(=O)[C@@H](NC(=O)[C@@H](N)CC(=O)O)C(C)C)CSSC[C@H](NC(=O)CNC(=O)[C@H](Cc3c[nH]c4ccccc34)NC(=O)[C@H](CCCCN)NC2=O)C(=O)N[C@@H](CO)C(=O)N[C@@H](CCCCN)C(=O)N[C@@H](CO)C(=O)N[C@@H](CCC(=O)O)C(=O)N[C@@H]([C@@H](C)CC)C(=O)N[C@@H](CO)C(=O)N[C@@H](CO)C(=O)N[C@@H](CC(C)C)C(=O)N[C@H](C(=O)O)CSSC[C@@H](C(=O)NCC(=O)NCC(=O)N[C@@H](CO)C(=O)N[C@@H](CCCNC(=N)N)C(=O)N[C@@H](Cc2c[nH]c3ccccc23)C(=O)O)NC(=O)[C@H]([C@@H](C)O)NC(=O)[C@H](Cc2ccccc2)NC(=O)[C@H]([C@@H](C)CC)NC(=O)[C@H](C(C)C)NC(=O)[C@H](C)NC(=O)[C@H](CCCNC(=N)N)NC1=O [relaxin-3, reference compound]
- IC50 (human RXFP4 [1]; HEK293T cells transiently overexpressing human RXFP4, 0.5 nM NanoLuc-conjugated R3/I5 tracer, 21 °C, 2 h, mean ± SE, n = 3, SEM, read-out: pIC50 RXFP4 (converted)): 12.3 nM
- IC50 (human RXFP3 [4]; HEK293T cells transiently overexpressing human RXFP3, 0.5 nM NanoLuc-conjugated R3/I5 tracer, 21 °C, 2 h, mean ± SE, n = 3, SEM, read-out: pIC50 RXFP3 (converted)): 2.04 nM
- EC50 (human RXFP4 [2]; HEK293T cells cotransfected with human RXFP4 and CRE-controlled NanoLuc reporter, 1.0 μM forskolin, 37 °C, 4 h, mean ± SE, n = 3, SEM, read-out: pEC50 RXFP4 (converted)): 0.105 nM
- EC50 (human RXFP3 [3]; HEK293T cells cotransfected with human RXFP3 and CRE-controlled NanoLuc reporter, 1.0 μM forskolin, 37 °C, 4 h, mean ± SE, n = 3, N.D., not detectable, SEM, read-out: pEC50 RXFP3 (converted)): 0.0245 nM

Compound: R3/I5: chimeric peptide containing the B-chain of relaxin-3 and the A-chain of INSL5 [reference compound]
- pIC50 RXFP4 (human RXFP4 [1]; [5]): 8.24 ± 0.03
- pIC50 RXFP3 (human RXFP3 [4]; [6]): 8.85 ± 0.02
- pEC50 RXFP4 (human RXFP4 [2]; [7]): 10.32 ± 0.03
- pEC50 RXFP3 (human RXFP3 [3]; [8]): 10.44 ± 0.03

Compound: [A(B20)G,S(B21)G]INSL5: recombinant mature two-chain INSL5 mutant (Insulin-like peptide INSL5 B … KESVRLCGLEYIRTVIYICGGSRW; Insulin-like peptide INSL5 A … QDLQTLCCTDGCSMTDLSALC; not fully specified; ends and bridges not checked; UniProt Q9Y5Q6 23-46; Q9Y5Q6 115-135, looked up, variant A20G S21G)
- pIC50 RXFP4 (human RXFP4 [1]; [5]): 6.39 ± 0.05
- fold lower binding potency towards RXFP4 compared with wild-type INSL5 (human RXFP4 [1]; lower than wild-type INSL5): ~ 23 fold
- pIC50 RXFP3 (human RXFP3 [4]; [6]): 6.01 ± 0.06
- fold lower binding potency towards RXFP3 compared with wild-type INSL5 (human RXFP3 [4]; lower than wild-type INSL5): ~ 18 fold
- pEC50 RXFP4 (human RXFP4 [2]; [7]): 8.59 ± 0.05
- fold lower activation potency towards RXFP4 compared with INSL5 (human RXFP4 [2]; lower than wild-type INSL5): ~ 6 fold
- pEC50 RXFP3 (human RXFP3 [3]; [8]): 6.90 ± 0.04
- fold lower activation potency towards RXFP3 than relaxin-3 (human RXFP3 [3]; lower than relaxin-3): ~ 5000 fold
